Measured values from US20250263489A1.
Numbering of substitutions follows the chain as printed.

B1: humanized antibody hIGF13_PS (antibody, V domains shown)
VH: QVQLVQSGAEVKKPGASVKVSCKAPGYTFTSYWMHWVRQAPGQGLEWMGETNPSSSVTNYAQKFQGRVTLTVDTSTSTAYMELSSLRSEDTATYYCTIGRGRGFAYWGQGTLVTVSS
VL: DIQMTQSPSSLSASVGDRVTITCRASQNINFWLSWYQQKPGKVPKLLIYKASNLHTGVPSRFSGSGSGTDFTLTISSLQPEDVATYYCLQGQSYPYTFGGGTKLEIK
B2: humanized antibody hIGF25_PS (antibody, V domains shown)
VH: B1 VH with T93V
VL: B1 VL
B3: mouse parent antibody IGF11-16 (antibody, mouse IgG1, kappa, V domains shown)
VH: QIQLQQPGAELVKPGASVKLSCKAPGYTFTSYWMHWVKQRPGQGLEWIGETNPSNSVTNYNEKFKSKATLTVDKSSSTAYMQLSSLTSEDSAVYYCTIGRGRGFAYWGQGTLVTVSA
VL: DIQMNQSPSSLSASLGDTITITCRASQNINFWLSWCQQKPGNIPKLLIYKASNLHTGVPSRFSGSGSGTDFTLTISSLQPEDIATYYCLQGQSYPYTFGGGTKLEIKR
B4: IGF11-16 with alanine substitution of W at position 32 (CDR-L1) (antibody, V domains shown)
VH: B3 VH
VL: B1 VL with T5N, V15L, R18T, V19I, W32A, Y36C, K42N, V43I, V83I
B5: IGF11-16 with alanine substitution of N at position 59 (CDR-H2) (antibody, mouse IgG1, V domains shown)
VH: B3 VH with N59A
VL: B1 VL with T5N, V15L, R18T, V19I, Y36C, K42N, V43I, V83I
B6: IGF11-16 with alanine substitution of N at position 52 (CDR-H2) (antibody, mouse IgG1, V domains shown)
VH: B3 VH with N52A
VL: B1 VL with T5N, V15L, R18T, V19I, Y36C, K42N, V43I, V83I
B7: IGF11-16 with alanine substitution of F at position 64 (CDR-H2) (antibody, mouse IgG1, V domains shown)
VH: B3 VH with F64A
VL: B1 VL with T5N, V15L, R18T, V19I, Y36C, K42N, V43I, V83I
B8: IGF11-16 with alanine substitution of S at position 56 (CDR-H2) (antibody, mouse IgG1, V domains shown)
VH: B3 VH with S56A
VL: B1 VL with T5N, V15L, R18T, V19I, Y36C, K42N, V43I, V83I
B9: IGF11-16 with alanine substitution of W at position 33 (CDR-H1) (antibody, mouse IgG1, V domains shown)
VH: B3 VH with W33A
VL: B1 VL with T5N, V15L, R18T, V19I, Y36C, K42N, V43I, V83I
B10: IGF11-16 with alanine substitution of H at position 35 (CDR-H1) (antibody, mouse IgG1, V domains shown)
VH: B3 VH with H35A
VL: B1 VL with T5N, V15L, R18T, V19I, Y36C, K42N, V43I, V83I
B11: IGF11-16 with alanine substitution of N at position 55 (CDR-H2) (antibody, mouse IgG1, V domains shown)
VH: B3 VH with N55A
VL: B1 VL with T5N, V15L, R18T, V19I, Y36C, K42N, V43I, V83I
B12: IGF11-16 with alanine substitution of R at position 102 (CDR-H3) (antibody, mouse IgG1, V domains shown)
VH: B3 VH with R102A
VL: B1 VL with T5N, V15L, R18T, V19I, Y36C, K42N, V43I, V83I
B13: IGF11-16 with alanine substitution of E at position 50 (CDR-H2) (antibody, mouse IgG1, V domains shown)
VH: B3 VH with E50A
VL: B1 VL with T5N, V15L, R18T, V19I, Y36C, K42N, V43I, V83I
B14: IGF11-16 with alanine substitution of S at position 54 (CDR-H2) (antibody, mouse IgG1, V domains shown)
VH: B3 VH with S54A
VL: B1 VL with T5N, V15L, R18T, V19I, Y36C, K42N, V43I, V83I

molecular target: recombinant human IGF-1 receptor histidine tag (305-GR-050, R&D SYSTEMS) (human) (UniProt P08069); assay: SPR, Biacore T200, summary sentence of Table 16

| Kd | Binder |
| --- | --- |
| < 100 pM | B1 |
| < 100 pM | B2 |

molecular target: recombinant human IGF-1 receptor histidine tag (305-GR-050, R&D SYSTEMS) (human) (UniProt P08069); assay: SPR, Biacore T200, 40 C, IGF-1R-His captured by anti-histidine-tag antibody, antibody as analyte, single cycle kinetics, 1:1 Binding model

| Kd | koff | kon | Binder |
| --- | --- | --- | --- |
| 57.8 pM | 0.000158 s⁻¹ | 2.85e+06 M⁻¹ s⁻¹ | B1 |
| 31.4 pM | 7.72e-05 s⁻¹ | 2.67e+06 M⁻¹ s⁻¹ | B3 |
| 51 pM | 0.000135 s⁻¹ | 2.87e+06 M⁻¹ s⁻¹ | B2 |

molecular target: recombinant human IGF-1 receptor histidine tag (305-GR-050, R&D SYSTEMS) (human) (UniProt P08069); assay: antigen ELISA, plate-coated human recombinant IGF-1R, antibody at 5 nM, relative to IGF11-16

| Binding @5 nM vs IGF11-16 (% vs IGF11-16) | Binding vs IGF11-16 (EC50) (% vs IGF11-16) | Binder |
| --- | --- | --- |
| 14 | – | B4 |
| – | 112 | B5 |
| – | 21 | B6 |
| – | 84 | B7 |
| – | 108 | B8 |
| – | 9 | B9 |
| – | 49 | B10 |
| – | 94 | B11 |
| – | 9 | B12 |
| – | 9 | B13 |
| – | 97 | B14 |
